Assay: soluble on expression in E. coli; label from the status in PepcDB or PDB records

Question: Which “soluble on expression in E. coli” value does the source give for “MEQNGFHTLSLFLNPKVLRPLLTQAVTQLPKYFLGQSSTPPSTSFEGRYKPSFLERAAFSTNPFDNTGSDTQQKLSPTELIRGSYGEGREAGKKTPAELIMSTDDLKRQMPSLPDALKDTIRIQEVPKQEKSDFSEQGGVASMIPQSPFVSNIDKVSGDEAGRQQKDVMDYITEFNNRSMPEEQRGSSPVNEETLSHTPISEEEHLKANDMPEQATDYVNAVGNFIHKDANPSNLWERFRKSEFSEHLMDFFAGLASGKTPQESFSNAALVMRQGNNTRLQNRPIFAFLRSKGYDDKDAQAIMQYPDLAMKVIGSTLSPQEDYRTLTAEEKAKQGLPEDMAFQISTSTGKIIPVQGGQRSTASGLGGNTDSMLSKPESGYMLVKDKNAPHGIRAMPIAGSGAEHKLIQEQKEEERKEQQAKMQILESADRSNRIISTSKELLKIVDEHPHVAGFLGYWGSFIPGFKAKDFGHMLDSLKASIGLDALTKAKAFSPNGASGFGNLSNMELQALQNSVAALYQDLTAEQLKKSLTTIIDTFNKSNAATRAILFGGAEATRELVRAAYGEDAYKKNNTQSDVSLEKQIEALPEGILFIDSDGRIKEKQTNG” here?
Answer: Its value is “not soluble”.

Question: Which “soluble on expression in E. coli” value does the source give for “MHVAIIGGGISGIAAAFYLAQQKVSIDIFESENQIGGRAGSDFLQERRVDFGGKNIGRNYLLFREFARAYGDPAFEYFGINTSQLINGRIVSISREGSAWLNLLKIIRLCGLRKGITRLYPHIQAILNDRSQGVLCSDYFRALSENFDHLTLDRYLNQRCIDRVIRPITIRMNGAEPEECYPGNFGSNLALALDSFEQLTLGMYNLLDTFIASHRQESSFRILTGHRVTSIAKDQDKFRINYLNGAVSGTGSYDRIISALPAYSLAELLQDELPEASRLLNKISYFPVSIAIVKYRDEVFPQNRRAMVFDRNSPLSNAGAYGLNDLDIVRYTFSGKASRAAISEHSTPEEVISLGEKTASPYFSIKDNPKEAFVFRYFPKGLCAYSPKHHLLLEEIDRLVNRLSGFGTTGDYRRGASIEACFRAAKECIEKVVGDGSLEHHHHHH” here?
Answer: The value was “soluble”.

Question: For “MASNEVLVLRGTLEGHNGWVTSLATSAGQPNLLLSASRDKTLISWKLTGDDQKFGVPVRSFKGHSHIVQDCTLTADGAYALSASWDKTLRLWDVATGETYQRFVGHKSDVMSVDIDKKASMIISGSRDKTIKVWTIKGQCLATLLGHNDWVSQVRVVPNEKADDDSVTIISAGNDKMVKAWNLNQFQIEADFIGHNSNINTLTASPDGTLIASAGKDGEIMLWNLAAKKAMYTLSAQDEVFSLAFSPNRYWLAAATATGIKVFSLDPQYLVDDLRPEFAGYSKAAEPHAVSLAWSADGQTLFAGYTDNVIRVWQVMTAN”, which “soluble on expression in E. coli” value is on record?
Answer: The value was “soluble”.

Question: With “MAHHHHHHMKPKMRRESAQPCLTCMPAILNKSVCPIHKIYSDNTLLLFMVIDCYNKMCSKKISTRNANDYKKLWNDNKLLICYSHGVLFHMHTRTSKTCFPQNYFSSNNDNCECGVHQVRFKTLKAQVHIIIPAILTGTTIV” as the sequence, how does the “soluble on expression in E. coli” value read?
Answer: The value was “not soluble”.

Question: For “MSLSENTTKVVQLNSHLTAPGQVTDELQSLTRMPAAFVETKDKGKQALRPLLQALFDNIDDALFELADRAEHNAEQNMFFESMREVRIKRRGMELCFGQELDNRFRLLLTDDAPRAKSSADDPRLAVDSLSLIANEELEELVAADTMIIKAEGEFTDSLSQLTTRIDTLVHPLEVTDKTNPFGPTSVCQSFVGVCKTLDMDIRAKLVLFKLFDRYVMNGLGDVYAACNEVLVNNGILPGLAKGRTTAARADSNIQQPPAASGTVDVFAQLQTLLHGLPQHTAGIETSGLVAVGQAPQIPRDTLMTLLQSVQLSLAPQLDQQLQAALQGVGPQQLDIQQSLSNLLSAKLPSKPMSIGQVESDALNLVAMLFQFILDDRNLAAPMKALIARLQIPFIKAAMIDSSFFTKGGHPARRLLNEIASASLGWVAIGIVDRDPLYAKVSSIVTRIQREFDGDSRLFQDVLTDFVAFLDMDKRRIGLVEQRTINAEDGKAKSEQARTAVQTALNERVAGLSLPKVVISLLEQAWSNVLFLIYLKEGDQAENWQEGLNVVDDLLWSVQPMDSADSRHRLVTMVPPLLKNVRAGLTKIGYNPFEMNQLFTDLEVVHLSQLQALNTVKLDMTASEGHHHHHH”, which “soluble on expression in E. coli” value is on record?
Answer: The value was “not soluble”.

Question: Which “soluble on expression in E. coli” value does the source give for “MSLSSRNSTPLRQFGYEFFMTPLDVSKLVLPVSENYKLGPGDEVIIYIVGLPSNQEIPPVIKTIVDREGNISIPNLGVFNVWGLTLKETEELLRQELGLDLKVTVGEIRTFVIYVAGEVNRPGTHVATAVNTVIDALSIAGGVKKTGSLRNIILTRKTPSGLKTYNIDLYDVFIKGKPIDLTLRDGDTILVKPIGPTVAIAGEVKRPAIYEIKGGETIKDLIELAGGLLPSSYQYKVILQRYENGKLRIIEDSLTNKAFMNENLRDGDLVLIKKSADIPENSYSIEGYVTLPGVYEYKEGLKLSDILNPDLFFKDTNLKFAVLVRQYPKGSIPKYIAFSPEKVLTGKEDMELKPYDRLIFFKLGQSEGHHHHHH” here?
Answer: The value was “soluble”.

Question: With “MRAIGLLEFKEITRGVYAADVMLKATPVELLLIDNICPGKLIVLIEGEVSAVKNAISRGKEVFSEGVIEEVVLTNPHPSLSTVFPRKKQSKKLNYNSIGIIETLSVSSAIKAADKAAKGANVEIIDIKIARFLGGKAIVVLGGEISAVKVAIDAGISAVQKGKLVSSTVVANINEKLLEMWV” as the sequence, how does the “soluble on expression in E. coli” value read?
Answer: Its value is “soluble”.

Question: Which “soluble on expression in E. coli” value does the source give for “MTTEFNEIMKEINDSETIIIHRHVRPDPDAYGSQLGLKNYLKLKFPDKKIFAVGETEPSLDFIGTFDEISDDTYNEALVIVCDTANSPRISDERFNQGRLLVKIDHHPAVDQYGDINFVNDQASSTSEIIFDFISHFNDIPIIDASVARVLYLGIVGDTGRFLFNNTTSHTMGVAGQLLTFPFNHNEELNKMGEKDPKLLPFQGYVLQHFDLNEKGFCKVTITKEILEQFDIAANQASLFVNAIADIQGLKIWVFAVDEGTEIRCRIRSKGIVINDIASDFGGGGHPNASGVSVRDWAQFETLAEALNNKLLEHHHHHH” here?
Answer: Its value is “soluble”.

Question: Which “soluble on expression in E. coli” value does the source give for “GSMPTTCGFPNCKFRSRYRGLEDNRHFYRIPKRPLILRQRWLTAIGRTEETVVSQLRICSAHFEGGEKKEGDIPVPDPTVDKQIKIELPPK” here?
Answer: The value was “soluble”.

Question: With “GIDPFTMLSSGDLTSASWELVVRVDHANGEQQTEITLRVSGDLHIGGVMLKLVEQMNIAQDWSDYALWWEQKRCWLLKTHWTLDKCGVQADANLLFTPQHKM” as the sequence, how does the “soluble on expression in E. coli” value read?
Answer: Its value is “soluble”.

Question: Which “soluble on expression in E. coli” value does the source give for “MSLAVEKITMPKLGESVTEGTISSWLVKPGDTVEKYDAIAEVLTDKVTAEIPSSFSGTIKEILAEEDETLEVGEVICTIETADAGSSEPVAEVEETETKAPEKQETKQVKLADAPASGRFSPAVLRIAGENNIDLSTVEGTGKGGRITRKDLLQVIENGPVAKREEMKSAPQEKAAMPTPPVRSAAGDKEIPINGVRKAIAKHMSVSKQEIPHAWMMVEVDATGLVRYRNAVKDSFKKEEGYSLTYFAFFIKAVAQALKEFPQLNSTWAGDKIIEHANINISIAIAAGDLLYVPVIKNADEKSIKGIAREISELAGKARNGKLSQADMEGGTFTVNSTGSFGSVQSMGIINHPQAAILQVESIVKRPVIIDDMIAVRDMVNLCLSIDHRILDGLLAGKFLQAIKANVEKISKENTALYEGHHHHHH” here?
Answer: Its value is “soluble”.

Question: Which “soluble on expression in E. coli” value does the source give for “MGSDKIHHHHHHMSILEVRGIEKTYSGKRILKAVSFDLESGKLTVLGGLNGIGKSTLIKMMSGDIRPDSGEIVFDGHHVELRSIVEARRIGLSAVYQEYMLVPDLTVAENIFLGSGKFTISRKKMNSEASRLLSKFGLSFDPSSKVSSLSSDEQALLEFAAAVFSEPKVLMIDDLFSVLQTESRKRLLQMIEVIKNKGTAVLVVTTDPDLMLMADHLLFMDESGVEYLPCPIERGAILERMGASSDFSILPAEGELLIEISNLAGSGQDLSLKRGEVLNIFCESGELVRAFTRAMIRQDPFTDNSVPLFREAKSFFDRFSSRSSSTPAEKYFCSNLKNTGLVSQVMLKKSGSFKSSKSLKKSFILNKESVVSVKSFLAGLERIPGFSGLVSEEDKKLSQLRFDACDLYVFVRPLLGLDPVSVNALSTVLQEIVNRSKAAVIISDEAGSSMLSTRKMRSSE” here?
Answer: The value was “not soluble”.

Question: For “MRGGSSLDSFPGKGTLHTLEIENFKSYKGKHTIGPFTRFTAIIGPNGSGKSNLMDAISFVLGEKPSSLRVRKYADLIHGAPINKPVAKKCRVTMNYKYSDGKVKAFTRGVNNGTSEHLLDGQTVTSAAYSQEMESINIFIKARNFLVYQGAIENIAMKTPKERTQLFEELSRSHEFQAEYERLKVEMTKAEDDTQHNMNKRRGIAQEKREAKMEKDEAEKYQTMKNELAAKSTMLFLHQLFHCERTIDESKEEINAQKKTIASLEATRSKEEAKIAAVHQEHRKALREVQKMTRKLDQKETDLAEKQQNMLTLKVSVAHEHKKLEIAKKMLAAAESKAENNSTQLADLKKSKKELEKKKAAYEAEIQDMMQRGELNLSDEQVREYGQLKDQAQRESAMVQRELLMAEQVFEGDKSSLNHELRRQKEHQERVKAKEGDVRRIETQIATLAQRIKETEEETKILKADLKKIENDVVIDKSAAAEYNKELVAVVRQLSEASGDSAEGERNQRRTEALEGLKKNFPESVYGRLVDLCQPSHKRFNIATTKILQKHMNSIVCDTEETAAKAIVYLKDHRYPPETFLPNDALVVNPLNEKLREIKKPAGVKLVFDVINPQHQAARKALQFVCGNALVCESQEDAKQLAYGGGELKDRFKAVSMDGTLFQQSGVMSGGSADLRQKSKKWDEKVVKQLREKRNQLNEKIADLQKHRRRELEVESVRSKINGNEQRLAMMKRDLKNMREMQLERLQNELEGMTAEMNMLPPRISNCQEKLERSESTLKSLQTKSNEVADRIFADFCTRVGIASIRDYENREMRIKQEMEDKLRSFDDDIQKLAYEIDFVTEQDGNRKVEVEKEKVSQIDRQYKDMKKKEKTAAAALKEHTESMEQDKEVLEEKKALSHKLETEWNEVKKIAQVAMKDFTKAEKELLRLESLLTKKQYERHSLLHSVKLGQIALPLKSGSMADVEYEEDDGDIYFIIFVSLFPFKFQLISDDTASQSSQSATDGPSVSEEQIQREQHIKINYDSLPREYKDVDDDDGVRQMSNRLNVEIDELQKNVSKMNAPNLKANQRMAEVKEREAESTEELENARKKAKRIRQQFEKVKTDRYRRFQDFFDPVANTIDDIYKQLSRNTSAQAFLGADNMEEPYLDGIQYNCVAPGKRFRPMDNLSGGEKTIAALALLFAVHGRNPAPFFVLDEIDAALDNTNIGKVASYICESAREHMQIIVISLKEEFYNKADSLIGIFPYPAACTTSGVLTFDLTRFKQIGLNEMTENPPTPSIAT”, which “soluble on expression in E. coli” value is on record?
Answer: Its value is “not soluble”.

Question: Which “soluble on expression in E. coli” value does the source give for “MAHHHHHHVREEKLRLRKQIIEHMNSLSKERYTTLSEQIVFSLYEQKEWAEAKTIGITLSMENEVNTYPIIEKAWKEGKRVVVPKCNKETRTMSFRQISNFDQLETVYMNLREPIPALTEEVNADEIDLQIVPGVAYTERGERIGYGGGYYDRYLVHYKGKTLSLAYSFQMVEHIPVEPFDKNVEKIITEKGTMVKNGLV” here?
Answer: Its value is “soluble”.

Question: Which “soluble on expression in E. coli” value does the source give for “MSYDTDPFRGEFDSLEEFADRVSDVLKCPVTIEDANHRLIAYSAHDDYTDPARTATIISRRVPEKVINSLWKQGAIPALLKSREPVRVPPIHDVGLGSRVAVSIWKNDEVIGFIWVLETNRTLSPEEMEWLKLAAKAAKNKVLQLYMRKNKKEERVQELFWKLLTGHIAREDDIRAHLAAMQIPTAPQFAVVVFRFAADLTAEMERQISYLLQTTQQLPLLLYTTDGRDVILLAAPKTDQPLKELNAFIESFAAKMKERFHIHDVQCGFGGVYGIYRLIEKSYREALAVLALKEKLGDEIKSVYGYAQLGIYQFFDLLLEQKRQGEWTNPALTKLQSYDQKHHSDLVKTFETFFDHNENAQETADVLNVHPNTLAYRLKRIADIAELDLNDMNQKIKLYIDIKLAKYEARG” here?
Answer: Its value is “not soluble”.

Question: With “MIYKSIAERLRIRLNSADFTLNSLLPGEKKLAEEFAVSRMTIRKAIDLLVAWGLVVRRHGSGTYLVRKDVLHQTASLTGLVEVLKRQGKTVTSQVLIFEIMPAPPAIASQLRIQINEQIYFSRRVRFVEGKPLMLEDSYMPVKLFRNLSLQHLEGSKFEYIEQECGILIGGNYESLMPVLADRLLARQMKVAEHTPLLRITSLSYSESGEFLNYSVMFRNASEY” as the sequence, how does the “soluble on expression in E. coli” value read?
Answer: The value was “not soluble”.
